Reference: the DeepSol protein solubility set

Experiment: soluble on expression in E. coli; label from the status in PepcDB or PDB records

Sequence | soluble on expression in E. coli
MLADPAQPEHVFIVEDSRGATELKLYKSHYTIGKADSCDIRLHSIYASRQHATLVRFLTENGEVRYRLIDGDPETSRRSANGTYVNNRSITECDLKHYDQILFGADVKATYFYLSPQFRSLEHHHHHH | not soluble
MLAERLVNDYDVEVLTTCVKNYVTGDNEYPEGEEILNGVLVRRFYSDPVEPDLHKSYVRQAAPAKKWRHFLYRCRLLKPLSYVKPIWHYKEQEEIKALNSQVFYSSSMYAFIRENKASYRAFIPLSFFPHTYYTALYAPEKTILIPTMHNNGSSFRSIITSVFSEVAYIGFNIEAEQKLVENIVGKPLAAHGIISVGIEKTKAADWEQTKVKYNLPEDYLLYVGRIDAIKLNNIVDYFLSYKKKYVGSRLKLVLVGGIFGKTVEHPDIIYTGFVDDAEKVAIQLNAKVIVNPSRYESLSLILLETMSEGKAMLVNGRCNVLREHCEKSNYAALYYMNRRDFMRKLHNLENSETLRQQMGEKGRHYVQENYNWEMIIGRMKNVIQMLS | not soluble
MLALGIEGTAHTLGIGIVSEDKVLANVFDTLTTEKGGIHPKEAAEHHARLMKPLLRKALSEAGVSLDDIDVIAFSQGPGLGPALRVVATAARALAVKYRKPIVGVNHCIAHVEITKMFGVKDPVGLYVSGGNTQVLALEGGRYRVFGETLDIGIGNAIDVFARELGLGFPGGPKVEKLAEKGEKYIELPYAVKGMDLSFSGLLTEAIRKYRSGKYRVEDLAYSFQETAFAALVEVTERAVAHTEKDEVVLVGGVAANNRLREMLRIMTEDRGIKFFVPPYDLCRDNGAMIAYTGLRMYKAGISFRLEETIVKQKFRTDEVEIVWHHHHHH | soluble
MLAPERIHPALWRATQLAHGPTRKLPTGYADLSAQLPGGGWPLGALVELLLPQPGSGEIRLLRPALAQLEARRAIALVQPPHAPHIASWASWRLDPRQLLWVAPERPADALWAAEQILKAGSCAALLCWLPQVRPESLRRLHLAAQGGDALFVALRPAAAEQHASPAVLRLALAPAPGGLSIRIVKRRGPACEHPVHVGLEAGAGLSVFPAPHAPLDRRLPAQPVAGRRTPALVSLEHHHHHH | not soluble
MLCCPDPRRRGQHNNRRRNAMPKLHESRIHDLRPTQLTVGMIEVQAKKTHLAAMAPADQQAFMQAHPIPAVLGPGGQLYITDHHHLGRAALDAGVITGYFMVEADLSQHSLDDFWKAMDQNLWVHPLDEHGVRHYYASIPKHLEKLVDDPYRSLAGYVRDAGGYDKTPTAFAEFVWADFFRRSIPIEDLLADFQAAVHAALPLAKSKFAKALPGYNGKLEHHHHHH | not soluble
MLDGLVVGGGLAGLTAARVLTRAGRRVRVLEAAPEVGGRVRSRELEGFTLDAGFQVLFPAYPAVRRQLNLDALDLVPLPSAAALRRGAREDVLGSPLDDLASLPSTLKSGALTLGDKLRVARLAASLRTPAAHELLIGSDESTESFLRGQGFSEAALDHFFRPFFGGIFLRRDLATSARLFRYYFRMLMDGGAALPRRGMGELSRQLAQGSDLLTGVRVSRLLPRPGYVTAVTSAGEIDARQVIVATEAPTASDLTGEALSRGALSSTYLYYATPQRISGQHRLLLNAETGLINNAQWTSLAVPGRAPTGQHLLTVTVLGLPDLDDASLDARVRGELTRWYGAEAVGTLRLLMLERIPYAQFEQPAGYAATLPGHATSLPGVLLASEITSMSGIQGALESGEKAAAIVLGDLAALSRPRGALEHHHHHH | not soluble
MLDRPHHTTADIIARCEALFSDLSFTAAREWKAAEPGRIVVGFLPYYAPRELVHAAGGLPLGIFGGGDQLEVIHGDAYYQSYICRIPRSTIELGVSGRLDFVDGMMFPSICDVIRNLSGMWKLMFPSKGARYIDLPHNFDDDLGGEFYVSELRETCEWLSTLTGKPITSDAIRASIAVFNDNRRLIRALYQLRADEPWNVPSSELYLLLRAGMVIPVEEHNQMLADYLAAVRLQQRPIKDNSRVVICGMFCEQPPLNLIKSIELSGCYIVDDDFILVTRWENSDVALDGDPLSNLASAYLHDSKSTPPKYEPDEAKKGLYLVDSVRKNRAEGVIFAMTSFCDPGLLERPMLQAVLKSHGIPQIAFKYAENSGQMQPIREQAGTFADSIKLWSGA | not soluble
MLEALKTANKTVGMKQSLKAVESLKAKQVFIAKDADEHVVARIKELCIKNNIPIVYVDTMKQLGKACNIDVGASVACLL | not soluble
MLEDLSQGKGSNHEKRKMESTAQITEEDSKLDEVVGLQKQICDLGTELTRQSSWWCIAHKDLQSQIDALIKENQEIRAELKTLKKQDAEATKACIGSPTPARASNTLPVYIKIEGTDSERTTSWDERDELSGSPPNRSTMATGGTDSQDEMLSFTSVDEKVIHMSSKFLQRSLGRMSPEPLSDSTFLDTESLADIWSSNPETSDGELLLHAQASRVIPCFSPNALWVQNIPTKSRAPKEIQQTSDTTKTDETKEKQHPNGKVERMLSDGRTIITFPNGTRKEISADKKTTLIRFFNGDMKKIKSNQKVIYYYADAQTMHTTYPDGVEVVQFPNKWTEKFYPDGSKETVFPDGTVKRLKDGCEETVFPDGTFVTVKRNGDKTIMFSNGEKEIHTARFKRKEFPDGTTKTVYCNGCQETKYASGRVRVKDEKGTVILDWK | not soluble
MLEFHNVPLKTILRRAIMSLPTNFNDILRFFEKDYDTAKEDNALSARGQFLQLYPLNHLKKMTLDDYVIGKGTASFCACVEVKTRTWANMQGATALKFGIYYGKSKSDPTVRYRFTQKFGDDDSTNKEVFANVKDALLDLIQSGKELDFRAIDENPLSQMFKAKILSLYFPEHFINICSKDHLKEIAMEMGIKEQQFISKYQHLLFKKKLEHKITRNWSNPKYMSFLYAQFIRKDLSSAPAVIVKKPQKRNHPEVNFEEITDNRDLIGKKSEEYALNWEKNRLIGLGYSKLAEEIDDRRNRPTYGYDFLSFNAPGDERYIEVKSIGRDGKEGAFRFFLSGNELTVSNLSNHSKNYYFYLVQYGKDGEPCNLYVKHAQDLYTNSEMSPCAYVVRFDLEEPALEHHHHHH | soluble
MLEGVIRESITKANAKALKKDGYLIANVYGKGIENVNGAFKLNPFIKYLKEKKHLIFPVKLGDKTFEVVVQEYQKNPVTNELIHVDLLAVTKGVKSKFKVPIKHQGTPVGLKNKGILMLSKKRISVECAPEHLPDHYLVDVAPLDVNESILVRDLEKHENVKILDHDSIAVIGVIKAK | not soluble
MLEINKIHQMNCFDFLDQVENKSVQLAVIDPPYNLSKADWDSFDSHNEFLAFTYRWIDKVLDKLDKDGSLYIFNTPFNCAFICQYLVSKGMIFQNWITWDKRDGMGSAKRRFSTGQETILFFSKSKNHTFNYDEVRVPYESTDRIKHASEKGILKNGKRWFPNPNGRLCGEVWHFSSQRHKEKVNGKTVKLTHITPKPRDLIERIIRASSNPNDLVLDCFMGSGTTAIVAKKLGRNFIGCDMNAEYVNQANFVLNQLEIN | soluble
MLERTQVFVDTSYLLASFYNSWETGARAQLEIDLPEVVGVLGRMIEQQLKQPVQRQMWYDGIPDSGPHRYQRALRTCDGVQLRAGQLIEWGERRTQKAVDTRLVADLVLAGVRGQCSDIVLVSGDADMIPGVQEAANAGLRVHLYGFGWDSMSSQLRHCCDTTTILDPREDFAECMQLQVLEGPLPPVVRVKPINDAEPIEDLDFTPVPGVASPFEEVSAKDEKFSPRPSEPAEALSEQVCEAQYEISKHEGQTADSGEITESFEAAEIKVTEFFGEPAAPVAESGVEAPTPEAPTVPEAAKPTPAKPKTPKAEPQKQESPKPGTPKPKAPSPADIPPKAPADTEEHSEVEAEIEDSRPKIPSPSMMAPRRKLRSRYVPLPNEVWATAGFQTPYDVGQQYASWWFENAATSTQRDQAHLLSGGGLPPEIDRPLLQFACETLHEYTLTEAQRVALRDGFHSGIRGVLLNQRDS | soluble
MLETLSFTERDEFQRRNIAENIIKLLKPEADISPLVIDGAWGTGKSEFSIKLKNLIIEQETESKVVYVDAFKGDHAESPLLLITSAIASILPEEEKQNFIKRSLPAIRFGLKTVLKAGAGWFLRQEASEVAEEFQDAMKKASNAAIDGTIENILEDHMESEKNINSLKSCIEDISNKQKIVIIIDELDRCKPSFSTNIIETIKHIFDINNVFFILVTNTEQLKASINHIYGYSINSQKYLDKFIKYTITLPDTCLINGHNVCKTSVIYWDHLVGETTLLNKINSLVGSFICDLIQRTNLSLRETQTFSRNLNIFRLLNDNECKSNDPFINMIVVVAVFIHCFGDKEKLKQEITAESISYLADLLNIKEIPYSYERRSQIPEISIIFFGIIKDSITLNERFAPKSDEELKKFTNVYTDYEHLKFWSTTPRELMIKYINQMSFIQLEHHHHHH | not soluble
MLFCPLLLIFLIANSNGEPLPPDMKDLQNHLDTFQKAVDTGDKKALREMMPVNQRISEEKLDEFIKTRKSFKMTAKSAQATSSGITGKVDYAIGKATLLLDVVLEKSSSSPSAYKFVSISKQSIPSQRREIPDCFYTLLIMCPYDLIVALAQTAENVLKG | not soluble
MLFEGLPCLAVWCKNRLSAVLPVGGLNVSENLLEIETHPFDPVLPPKAAVMMMGTFPPKEDKRAMQFHYPNFQNDMWRVYGLVFFNDAAHFQRLSEKAFDAEKIKAFLHERGIASCPTVLKAVRQHGNASDKFLKVVETVDLAAVLAKIPECRHICTTGGKATEILLDIQGGGIKMPKTGETVPFPFAGRDLTLTRLPSTSRAYPLSLAKKAAAYRAFFEMAGLCEKQLLEHHHHHH | not soluble
MLGAIAYTGNKQSLLPELKSHFPKYNRFVDLFCGGLSVSLNVNGPVLANDIQEPIIEMYKRLINVSWDDVLKVIKQYKLSKTSKEEFLKLREDYNKTRDPLLLYVLHFHGFSNMIRINDKGNFTTPFGKRTINKNSEKRFNHFKQNCDKIIFSSLHFKDVKILDGDFVYVDPPYLITVADYNKFWSEDEEKDLLNLLDSLNDRGIKFGLSNVLEHHGKENTLLKEWSKKYNVKHLNKKYVFNIYHSKEKNGTDEVYIFN | soluble
MLGGKGRPSGVGGYRILVTTSRRPSPRIRSFVKDLSATIPGAFRFTRGHYSMEELAREAIIRGADRIVVVGERRGNPGIIRVYAVEGPERPDNIVSFIVKGVSLSRERRWGLPSLRGGEVLVARPLDSGVAVEFADAFVIAFHARLKPPEAAGYVEAVIESLDARTVAVTFRYGGAPVGPMLRLGKPAEMVKRGRRVAAALEHHHHHH | not soluble
MLGGYAHRIARIDLSTGQVEYFAPDPKDLEMYVGGRGLGVKYVFENGPQVDPLGPENLLCIMNGPLSGTRAKMSGRLAVVTKSPLTGTVTDSHMGGWTAAKLKWAGFDGLLIKGASEKPVYLLVKDGEVSIHDASDLWGKTTHETCRILRERHGEEADVMAIGPAGENLVRFANWINNDERAAGRGGTGAVAGSKKLKAIVVVGTHDKMPQPKDPELWKEADRLASATINDPKNVTAPKKGGLSLYGTNVLMNITNVMGALPTFNAQHTCIEGAEKISGEYIREHRLIKDNTCHACPVACKKMVEVHINGKTIRFESYEYESAWALGAHSGHTDTDWTGYAIYLCNAYGMDTIEAGNAIAVLMEATEKGYYQGEDGIRFGDKEGEIRVLEAIAYRKGVGDMLAEGPARFAKAIGHPEIALEVKGQSIPAYDPRGLKGMGIAYATSNRGACHLRAYTPASEILGVPYKTDPLAWEGKGKLTKLFQDLSAFTDSLDLCKFSQFAEGPEEYAKQLAAYWGRPVTPEEILRIGERIYNLERYYNNLAGWGEGSDYLPERFLKEPSDCAGSKGQVTELDRMLEEYYRERGWERGVVPPAKLQELGILSQAADD | soluble
MLGIVIATHGALSDGAKDAATVIMGATENIETVNLNSGDDVQALGGQIKTAIENVQQGDGVLVMVDLLSASPYNQAVLVINELEPALQKKIFVVSGTNLPMVLEAINHQLLGTPIAEAAQAIVAQGKESVQAWDISMTSFEDEEDEDDDF | soluble
MLGKLPQQANDYLNSFNWERQVSHAKEKLTALTKKYRITENDIQIALDDAKINFNEKLSQLQTYMI | not soluble
